Results as given in patent US20110152202A1 (STC UNM, published 2011).
Positions count from the first letter of the chain named. Numbers in names are those of the source.

T1: mouse FcγRI on mouse peritoneal macrophages (from FcγRIIb-/- mice) (mouse, UniProt P26151 25-404)
T1 construct: whole, on cells; also called FcγRI on mouse macrophages
T1 sequence (looked up): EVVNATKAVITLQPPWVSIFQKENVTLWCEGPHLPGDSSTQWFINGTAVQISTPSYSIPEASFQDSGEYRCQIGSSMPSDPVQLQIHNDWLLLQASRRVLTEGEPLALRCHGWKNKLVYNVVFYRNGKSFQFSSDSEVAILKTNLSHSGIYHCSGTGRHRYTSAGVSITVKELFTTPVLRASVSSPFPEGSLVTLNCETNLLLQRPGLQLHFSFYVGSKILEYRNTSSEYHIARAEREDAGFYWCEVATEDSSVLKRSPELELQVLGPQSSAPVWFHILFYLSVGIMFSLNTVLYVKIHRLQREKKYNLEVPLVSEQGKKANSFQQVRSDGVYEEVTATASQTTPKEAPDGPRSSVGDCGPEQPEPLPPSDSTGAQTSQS

B1: C-reactive protein (human CRP) (ligand)
chain: QTDMSRKAFVFPKESDTSYVSLKAPLTKPLKAFTVCLHFYTELSSTRGYSIFSYATKRQDNEILIFWSKDIGYSFTVGGSEILFEVPEVTVAPVHICTSWESASGIVEFWVDGKPRVRKSLKKGYTVGAEASIILGQEQDSFGGNFEGSQSLVGDIGNVNMWDFVLSPDEINTIYLGGPFSPNVLNWRALKYEVQGEVFTKPQLWP
notes: also called purified human CRP; native CRP
B2: Y175L mutant CRP (tyrosine 175 replaced by leucine) (ligand)
chain: B1 chain with Y175L
notes: It has 206 amino acids; The protein is recombinant; also called Y175L CRP; recombinant Y175L mutant CRP

Columns and labels:
[1] = target: T2, human FcγRI (human, UniProt P12314 16-288, limits assumed); assay: SPR, CRP as analyte on immobilized human FcγR
T2 construct: Immobilized on the SPR chip

[2] = target: human FcγRIII (human); assay: SPR, CRP as analyte on immobilized human FcγR
[3] = target: T1, mouse FcγRI on mouse peritoneal …; assay: two-color flow cytometry of CRP bound to mouse peritoneal macrophages expressing FcγRI (from FcγRIIb-/- mice); panel title 'Binding to FcγRI'
Source text: A. Macrophages expressing FcγRI (from FcγRIIb^{-/-} mice). B. Macrophages expressing FcγRIIb (from FcR γ-chain^{-/-} mice).

T2 sequence (P12314 16-288 limits assumed): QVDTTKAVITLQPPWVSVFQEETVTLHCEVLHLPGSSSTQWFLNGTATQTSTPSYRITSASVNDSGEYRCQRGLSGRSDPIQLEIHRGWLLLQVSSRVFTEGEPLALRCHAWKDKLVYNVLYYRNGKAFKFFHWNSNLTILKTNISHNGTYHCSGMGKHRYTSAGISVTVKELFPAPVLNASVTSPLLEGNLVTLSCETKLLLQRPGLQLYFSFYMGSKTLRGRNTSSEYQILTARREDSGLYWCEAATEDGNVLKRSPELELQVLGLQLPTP
Chain of human FcγRIII (human) (O75015 17-200): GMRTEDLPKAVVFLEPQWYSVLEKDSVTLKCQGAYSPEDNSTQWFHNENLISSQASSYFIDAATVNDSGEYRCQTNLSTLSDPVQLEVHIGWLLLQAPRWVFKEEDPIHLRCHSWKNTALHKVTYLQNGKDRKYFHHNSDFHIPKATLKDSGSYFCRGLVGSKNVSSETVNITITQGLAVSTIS

| Binder | Kd [1] | Kd [2] | binding result [3] |
| --- | --- | --- | --- |
| B1 | 3.2 µM | 4.1 µM | binds |
| B2 | 3.5 µM |  | binds |
